Experimental data from the Human Domainome abundance scans (Beltran et al. 2025).
± gives the uncertainty stated by the source.

B1: CD2-associated protein, residues 109 to 169; numbered along this chain, Q9Y5K6 (parent)
chain: KKRQCKVLFEYIPQNEDELELKVGDIIDINEEVEEGWWSGTLNNKLGLFPSNFVKELEVTD

Variants of: B1
Test: abundance fitness (aPCA) (normalised: wild type 0, dead -1); higher = more abundant; growth selection in yeast, the domain comes from the species named
Conditions: Homo sapiens

Abundance fitness: each site, then its substitutions
V23: Q -0.071 ± 0.17
E20: K -0.002 ± 0.46; H -0.214 ± 0.32; S -0.317 ± 0.17; T -0.409 ± 0.24; M -0.229 ± 0.24; R -0.125 ± 0.17; I -0.502 ± 0.34; V -0.435 ± 0.25; C 0.107 ± 0.24; L -0.157 ± 0.16; G -0.369 ± 0.19; W 0.012 ± 0.15; A -0.015 ± 0.18
P13: R 0.026 ± 0.094; W -0.881 ± 0.29; K -0.233 ± 0.25; L -0.903 ± 0.34; E -0.747 ± 0.39; M -0.812 ± 0.38; S -0.444 ± 0.21; G -0.547 ± 0.13
L19: A -0.906 ± 0.43; I -0.063 ± 0.33; K -0.727 ± 0.43; W -1.18 ± 0.42; M -0.319 ± 0.29; S -0.826 ± 0.45; R -0.68 ± 0.17; E -0.641 ± 0.34; G -0.508 ± 0.21; H -0.73 ± 0.36
K6: H -0.02 ± 0.077; E -0.06 ± 0.11; Y 0.219 ± 0.055; F -0.042 ± 0.059; P -0.761 ± 0.094; R 0.122 ± 0.054; Q 0.191 ± 0.065; C 0.088 ± 0.052; M 0.151 ± 0.08; S -0.084 ± 0.046; W -0.119 ± 0.086; N -0.472 ± 0.09; V 0.278 ± 0.041; I 0.309 ± 0.054; L 0.255 ± 0.046; A 0.112 ± 0.053
V7: R -0.193 ± 0.17; C -0.293 ± 0.2; P -1.05 ± 0.26; E -0.999 ± 0.37; L -0.542 ± 0.14; Q 0.1 ± 0.16; T -0.9 ± 0.31; F -0.826 ± 0.38; S -0.399 ± 0.13; M -0.884 ± 0.24; G -1.24 ± 0.32; D -0.748 ± 0.39; A -0.03 ± 0.076
Y11: P -0.481 ± 0.22; L -0.951 ± 0.21; D -0.446 ± 0.36; V -0.715 ± 0.13; M -0.897 ± 0.45; F -0.767 ± 0.17; R 0.072 ± 0.094; A -0.539 ± 0.17; H -0.286 ± 0.34; Q -0.936 ± 0.44; T -0.458 ± 0.34; S -0.572 ± 0.15; E -0.73 ± 0.21; W -0.318 ± 0.16; G -0.855 ± 0.14; N -0.344 ± 0.42; K -0.415 ± 0.37
I12: Q -0.267 ± 0.27; P -0.159 ± 0.37; V -0.218 ± 0.18; W -0.311 ± 0.15; R -0.253 ± 0.11; T 0.106 ± 0.14; E -0.122 ± 0.19; K -0.063 ± 0.19; S -0.138 ± 0.13; F -0.026 ± 0.21; Y 0.065 ± 0.23; A -0.03 ± 0.13; D -0.303 ± 0.23
F9: I 0.131 ± 0.3; G -0.294 ± 0.11; D -0.097 ± 0.17; S 0.004 ± 0.087; R 0.18 ± 0.075; C -0.303 ± 0.22; A 0.026 ± 0.11; T 0.222 ± 0.12; H 0.145 ± 0.35; E 0.173 ± 0.13; M 0.244 ± 0.1; P -0.449 ± 0.14; W -0.108 ± 0.15; L 0.283 ± 0.086; Q 0.083 ± 0.12
K1: Q -0.316 ± 0.19; D 0.195 ± 0.38; C -0.232 ± 0.26; N 0.265 ± 0.29; Y -0.172 ± 0.28; V -0.367 ± 0.26; T 0.113 ± 0.27; G -0.122 ± 0.13; I -0.241 ± 0.4; S -0.249 ± 0.13; M -0.184 ± 0.22; R -0.181 ± 0.12; F -0.351 ± 0.27
L21: I -0.4 ± 0.16; Q -0.893 ± 0.42; A -0.838 ± 0.19; S -0.719 ± 0.21; F -0.826 ± 0.4; N -0.355 ± 0.29; V -0.678 ± 0.22; R -0.861 ± 0.26; G -0.348 ± 0.16; M -0.319 ± 0.37
Q14: V -0.338 ± 0.27; L -0.407 ± 0.23; C -0.304 ± 0.24; W -0.788 ± 0.32; T 0.079 ± 0.16; S -0.325 ± 0.25; G -0.337 ± 0.18; A -0.203 ± 0.39; H -0.509 ± 0.42; R -0.183 ± 0.15
K2: S -0.754 ± 0.3; F -0.51 ± 0.42; T -0.423 ± 0.3; E 0.145 ± 0.3; R -0.334 ± 0.23; A -0.197 ± 0.16; N -0.227 ± 0.28; M 0.011 ± 0.21; P -0.293 ± 0.28; Y -0.183 ± 0.41; G -0.007 ± 0.36
N15: S -0.04 ± 0.086; R 0.153 ± 0.078; W -0.483 ± 0.15; F -0.448 ± 0.15; P -0.639 ± 0.17; Q -0.26 ± 0.13; Y -0.558 ± 0.27; G -0.19 ± 0.14; C -0.3 ± 0.13; H -0.148 ± 0.16; L -0.468 ± 0.1; I -0.851 ± 0.22; M -0.614 ± 0.36; K -0.041 ± 0.18; E -0.275 ± 0.21; T -0.097 ± 0.1; A 0.041 ± 0.14
